The assay concerns the target WIV16 RBD ([change] domain) (bat SARS-like coronavirus WIV16).

human monoclonal antibody 47D11: the IC50 of neutralization of WIV16-S pseudotyped VSV (luciferase) on VeroE6 cells was 0.165 µg/mL.

These data come from paper PMC8172134.
